The format of data set [1] is physicochemical. How it is done:
Radio-HPLC Analytical Method: Eluent A: Water+0.1% TFA; Eluent B: ACN+0.1% TFA; Column temperature: 25° C.; Flow: 1.0 mL/min; Column: […] Gradient: hold 10% B for 1 min, from 10 to 80% B in 8 min, hold 80% B for 2 min, from 80 to 15% B in 1 min. The initial radiochemical purity of [^68Ga]Ga-labeled compounds was analyzed by radio-HPLC and the stability in solution at 24° C. was evaluated 4 h after the end of synthesis by radio-HPLC.

Data set [2] concerns the target T1, mouse HER2 (23-653) (Mus musculus, UniProt P70424). Put plainly: Surface plasmon resonance (SPR) for assessment of peptide affinity, mouse HER2. As to conditions: SPR, mouse HER2 extracellular domain, 25° C., 1:1 binding model; read-out: moHER2-SPR-ONC KD. Format: binding. The source says: Each protein was immobilized either onto a SA sensorchip (Cytiva, BR-1005-31) or CM5 sensorchip (Cytiva, BR-1005-30) to a density of 800-2000 RU.
(In general: SPR reads the build-up and loss of mass on a sensor chip optically.)

In data set [3] the target is T2, human HER2 (23-652) (Homo sapiens, UniProt P04626). Put plainly: TR-FRET competition assay for peptide potency, human HER2. It is filed as binding. On the set-up: towards human HER2 (23-652) and mouse HER2 (23-653); made in house; host or cells: mammalian cells. As to conditions: read-out: huHER2 TR-FRET IC50. Background: Time-resolved FRET reads energy transfer from a long-lived donor to a nearby acceptor.

Data set [4] concerns the target T2, human HER2 (23-652). Briefly: Surface plasmon resonance (SPR) for assessment of peptide affinity, human HER2. Conditions: SPR, human HER2 extracellular domain, 25° C., 1:1 binding model; read-out: huHER2-SPR-ONC KD. Format: binding. Here is the method:
Each protein was immobilized either onto a SA sensorchip (Cytiva, BR-1005-31) or CM5 sensorchip (Cytiva, BR-1005-30) to a density of 800-2000 RU. […] For the assay setup the same conditions (flow rate, running buffer, peptide dilution) as described above were used. In a first step the Anti Fc IgG Ab (from Human Antibody Capture Kit, Ref. 29234600, Cytiva) was diluted into acetate pH 5.0 at 25 ug/mL and immobilized at a flow rate of 10 uL/min over 360 s to reach a density around 6000 RU. […] The peptides were tested with an association time of 280 s followed by a dissociation time of 3000 s at a flow rate of 30 uL/min. The regeneration was done using 3 M magnesium chloride regeneration solution as obtained with a contact time of 30 s at a flow rate of 10 uL/min. Curve fitting was performed using the BiacoreTM 8K evaluation software.

For data set [5], the target named is T1, mouse HER2 (23-653). Briefly: TR-FRET competition assay for peptide potency, mouse HER2. Format: binding. Set-up: mouse HER2 (23-653) using a Cy5 labeled peptide as a probe; made in house; host or cells: mammalian cells. As to conditions: TR-FRET competition with Cy5 labeled peptide probe, 0.1 nM mouse HER2, 24 h incubation; read-out: moHER2 TR-FRET IC50.
Data set [6] concerns subcutaneous JimT1 tumors. On the set-up: species or system Nu (NCr)-Foxnlnu-homozygous mice. As to conditions: mouse, in vivo, iv. Here is the method: Biodistribution studies were performed at Minerva Imaging. All animal experimentation was carried out under a license approved by the National Animal Experiments Inspectorate under the Ministry of Environment and Food of Denmark, and further approved by the Novartis Animal Welfare Office. Biodistribution studies were performed in Nu (NCr)-Foxnlnu-homozygous mice bearing subcutaneous JimT1 tumors. Mice were subcutaneously implanted with 2×10^6 JimT1 cells into right flank. The biodistribution studies were typically performed when tumors were approximately 200 mm^3 in volume. Compounds according to Examples H1 and H2 were prepared as described in the radiochemistry part (Section 9). Animals were single dose administered with an activity concentration of 4 MBq/nmol per animal. The biodistribution of the compounds was assessed using conventional ex vivo biodistribution at different time points (1, 4, 24 and 72 hrs) after intravenous injection of Lu-177 labelled compounds. Mice were euthanized and organs were collected, weighed, and placed inside counting vials. Organ uptake was assessed by gamma counting using an automated gamma counter for 60 seconds immediately after tissue collection. Tissue counts and injected doses for individual animals were decay-corrected to the time of injection. […] Results expressed as a percentage of injected dose per gram of the tissue (% ID/g).

Data set [7] addresses T3, human HER2 (23-652), biotinylated, His tag, Avi tag (human, UniProt P04626 23-652, biotin (Avi tag)).
T3 construct: range 23-652; TR-FRET used the in-house 23-652 protein; also called huHER2; human epidermal growth factor receptor 2; not shown: His tag and Avi tag, said to be at the N-terminus for the TR-FRET protein
Put plainly: SPR, HER2 on chip, 25 C.

For data set [8], the target named is T4, mouse HER2 (23-653), biotinylated, His tag, Avi tag (mouse, UniProt P70424 23-653, biotin (Avi tag)).
T4 construct: range 23-653; in-house protein expressed in mammalian cells; also called moHER2; not shown: His tag and Avi tag, said to be at the N-terminus for the TR-FRET protein
Briefly: SPR, HER2 on chip, 25 C.

For data set [9], the target named is T3, human HER2 (23-652), biotinylated, His …. Put plainly: TR-FRET competition vs Cy5 peptide probe.
For data set [10], the target named is T4, mouse HER2 (23-653), biotinylated, His …. Briefly: TR-FRET competition vs Cy5 peptide probe.
Data set [11] has as its target human HER2 (23-652), biotinylated, His tag, Avi tag (human) (UniProt P04626). Briefly: TR-FRET competition vs Cy5 peptide probe; TR-FRET competition, IC50.
In data set [12] the target is mouse HER2 (23-653), biotinylated, His tag, Avi tag (mouse) (UniProt P70424). Put plainly: SPR, HER2 on chip, 25 C.

Positions of bridges follow the written chain, without caps; N, C: chain ends. Non-standard residues stand in square brackets, D forms with d. *: point of attachment. X4 = 4‑(carboxymethyl)piperazine‑1‑carbonyl, O=C(O)CN1CCN(C(=O)*)CC1; DOTA = O=C(O)CN1CCN(CC(=O)O)CCN(CC(=O)*)CCN(CC(=O)O)CC1; Trp(5-OH) = N[C@@H](Cc1c[nH]c2ccc(O)cc12)C(=O)O; NMePhe(4-F) = CN[C@@H](Cc1ccc(F)cc1)C(=O)O; NMehPhe = CN[C@@H](CCc1ccccc1)C(=O)O; Aad = N[C@@H](CCCC(=O)O)C(=O)O; aThr = C[C@H](O)[C@H](N)C(=O)O; NMeK = CN[C@@H](CCCCN)C(=O)O; NMeDap = CN[C@@H](CN)C(=O)O; NMeC = CN[C@@H](CS)C(=O)O; NMeS = CN[C@@H](CO)C(=O)O; CproG = not defined here; Dap = NC[C@H](N)C(=O)O

T1 sequence (P70424 23-653): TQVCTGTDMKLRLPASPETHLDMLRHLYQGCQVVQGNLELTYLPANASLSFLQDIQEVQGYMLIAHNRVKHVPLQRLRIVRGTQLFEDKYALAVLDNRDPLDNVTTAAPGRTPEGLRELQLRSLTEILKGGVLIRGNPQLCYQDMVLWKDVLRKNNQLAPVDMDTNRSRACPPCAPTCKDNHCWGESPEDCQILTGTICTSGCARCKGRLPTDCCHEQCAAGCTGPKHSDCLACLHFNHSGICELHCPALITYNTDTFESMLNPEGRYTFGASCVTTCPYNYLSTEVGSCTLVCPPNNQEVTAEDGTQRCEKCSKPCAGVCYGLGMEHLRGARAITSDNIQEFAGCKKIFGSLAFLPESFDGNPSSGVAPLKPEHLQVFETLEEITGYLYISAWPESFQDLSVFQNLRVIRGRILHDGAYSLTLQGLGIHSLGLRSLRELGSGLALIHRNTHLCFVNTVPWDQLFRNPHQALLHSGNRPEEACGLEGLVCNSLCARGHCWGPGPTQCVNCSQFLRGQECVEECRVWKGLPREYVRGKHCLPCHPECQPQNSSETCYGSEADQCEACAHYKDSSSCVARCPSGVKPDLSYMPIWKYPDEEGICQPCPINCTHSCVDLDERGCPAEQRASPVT
T4 sequence (P70424 23-653 limits assumed): as the sequence (P70424 23-653) above
Chain of mouse HER2 (23-653), biotinylated, His tag, Avi tag (mouse) (P70424 23-653 limits assumed): as the sequence (P70424 23-653) above

Take `CC(=O)NCCCC[C@H]1C(=O)N[C@@H](Cc2c[nH]c3ccc(O)cc23)C(=O)N[C@@H](Cc2c[nH]c3ccccc23)C(=O)N[C@@H](C2CC2)C(=O)N(C)[C@H](C(=O)N(C)[C@@H](Cc2ccc(F)cc2)C(=O)N[C@@H](CCCCNC(=O)CN2CCN(CC(=O)O)CCN(CC(=O)O)CCN(CC(=O)O)CC2)C(N)=O)CNC(=O)CCC[C@H](NC(C)=O)C(=O)N[C@@H](Cc2ccc(O)cc2)C(=O)N[C@@H](CO)C(=O)N(C)[C@@H](CCc2ccccc2)C(=O)N1C` [Example I2, Example B1 labelled with ^68Ga, metal not drawn]: in data set [1], the “Radiochemical purity by radio-HPLC, stability in solution, 4 h” value worked out at 97.2%.
By Kd is commonly meant the concentration at which binding is half-saturated. The term IC50 denotes the concentration that gives 50% inhibition. Turning to `CC(=O)NCCCC[C@H]1C(=O)N[C@@H](Cc2c[nH]c3ccc(O)cc23)C(=O)N[C@@H](Cc2c[nH]c3ccccc23)C(=O)N[C@@H](C2CC2)C(=O)N(C)[C@H](C(=O)N(C)[C@@H](Cc2ccc(F)cc2)C(=O)N[C@@H](CCCCNC(=O)c2ccc([N+](C)(C)C)nc2)C(N)=O)CNC(=O)CCC[C@H](NC(C)=O)C(=O)N[C@@H](Cc2ccc(O)cc2)C(=O)N[C@@H](CO)C(=O)N(C)[C@@H](CCc2ccccc2)C(=O)N1C` [Example F2], the dissociation constant Kd on mouse HER2 (23-653) [2] and at human HER2 (23-652) [4] was under 0.1 nM throughout. Further, the IC50 was under 0.1 nM on human HER2 (23-652) [3] and 0.2 nM on mouse HER2 (23-653) [5].
On to `COCCOCCOCCOCCOCCOCCOCCOCCOCCOCCOCCOCCC(=O)N[C@H]1CCCC(=O)NC[C@@H](C(=O)N(C)[C@@H](Cc2ccc(F)cc2)C(=O)N[C@@H](CCCCNC(=O)CN2CCN(CC(=O)O)CCN(CC(=O)O)CCN(CC(=O)O)CC2)C(N)=O)N(C)C(=O)[C@H](C2CC2)NC(=O)[C@H](Cc2c[nH]c3ccccc23)NC(=O)[C@H](Cc2c[nH]c3ccc(O)cc23)NC(=O)[C@H](CCCCNC(C)=O)N(C)C(=O)[C@H](CCc2ccccc2)N(C)C(=O)[C@H](CO)NC(=O)[C@H](Cc2ccc(O)cc2)NC1=O` [Example H1, Example B2 labelled with ^177Lu, metal not drawn], for which the tumor/normal tissue ratios entry in [6] was “favorable tumor/normal tissue ratios”.
On to `COCCOCCOCCOCCOCCOCCOCCOCCOCCOCCOCCOCCC(=O)N[C@H]1CCCC(=O)NC[C@@H](C(=O)N(C)[C@@H](Cc2ccc(F)cc2)C(=O)N[C@@H](CCCCNC(=O)CN2CCN(CC(=O)O)CCN(CC(=O)O)CCN(CC(=O)O)CC2)C(N)=O)N(C)C(=O)[C@H](C2CC2)NC(=O)[C@H](Cc2c[nH]c3ccccc23)NC(=O)[C@H](Cc2c[nH]c3ccc(O)cc23)NC(=O)[C@H](CCCCNC(C)=O)N(C)C(=O)[C@H](CCc2ccccc2)N(C)C(=O)[C@H](CO)NC(=O)[C@H](Cc2ccc(O)cc2)NC1=O` [Example I1, Example B2 labelled with ^68Ga, metal not drawn], for which, in data set [1], the “Radiochemical purity by radio-HPLC, stability in solution, 4 h” value is on record as 97.2%.
As to Ac-EY[Dap](DOTA)[NMehPhe][NMeK](Ac)[Trp(5-OH)]W[aThr][NMeDap][NMePhe(4-F)]K(X4)-NH2 (lactam 1-9; also: DOTA complexed with 175Lu) [Example C26], the dissociation constant Kd amounted to 5.1 nM in [7] and 11 nM in data set [8]. In addition, the 50% inhibitory concentration (IC50) in [9] worked out at 4.2 nM; in [10] it was 17 nM.
Ac-[Aad]YS[NMehPhe][MeKAc][Trp(5-OH)]A[CproG][NMeDap][NMePhe(4-F)]K(DOTA)-NH2 (lactam 1-9; reading uncertain; also: DOTA complexed with 175Lu) [Example C32] came in with an IC50 in data set [11] of 9820 nM.
In data set [12], H-CYS[NMehPhe][NMeS][Trp(5-OH)]W[cProG][NMeC][NMePhe(4-F)]-NH2 (disulfide 1-9) [Example A54] came in with a Kd of 5300 nM.

Values taken from US20250332300A1 (priority 2024, published 2025).
